Source: patent publication US20260125455A1 (CLEVELAND CLINIC FOUNDATION, published 2026)

B1: MoC601 HuG4K (chimeric C601 antibody) (antibody, human IgG4 S228P, kappa, V domains shown)
VH: QVQLQQSGAELVKPGASVKISCKASGYAFSDYWMNWVKQRPGKGLEWIGQIYPGDDDTNYNGKFKGKATLTADKSSSTAYMQLSSLTSEDSAVYFCAREGYYGYTYVEYFDVWGTGTTVTVSS
VL: QIVLTQSPAIMSVSPGEKVTLTCSASSSVSYMHWYQQKSGTSPKRWIYDTSKLASGVPARFSGSGSGTSYSLTISSMEAEDAATYYCQQWTSNPLTFGAGTKLELRR
notes: also called chimeric antibody; chimeric 1C9
B2: C601HFKC4 HuG4K (antibody, human IgG4 S228P, kappa)
heavy: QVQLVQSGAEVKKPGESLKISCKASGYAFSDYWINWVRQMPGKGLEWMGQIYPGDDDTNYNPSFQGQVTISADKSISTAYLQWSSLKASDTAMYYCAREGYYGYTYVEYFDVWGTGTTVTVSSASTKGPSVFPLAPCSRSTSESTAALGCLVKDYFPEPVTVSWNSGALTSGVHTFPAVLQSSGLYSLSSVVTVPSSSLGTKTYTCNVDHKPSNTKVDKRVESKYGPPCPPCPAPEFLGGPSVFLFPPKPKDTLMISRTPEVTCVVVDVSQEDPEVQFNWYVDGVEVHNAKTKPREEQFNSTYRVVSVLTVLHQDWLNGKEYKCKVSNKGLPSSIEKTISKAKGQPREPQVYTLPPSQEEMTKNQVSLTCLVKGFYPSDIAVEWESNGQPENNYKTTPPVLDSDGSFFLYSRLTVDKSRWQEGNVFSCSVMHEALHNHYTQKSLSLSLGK
light: QIVLTQSPATLSLSPGERATLSCRASSSVSYLHWYQQKPGQSPRLWIYDTSKRATGIPARFSGSGSGTDYTLTISSLEPEDFAVYYCQQWTSNPLTFGQGTKLEIKRTVAAPSVFIFPPSDEQLKSGTASVVCLLNNFYPREAKVQWKVDNALQSGNSQESVTEQDSKDSTYSLSSTLTLSKADYEKHKVYACEVTHQGLSSPVTKSFNRGEC
notes: also called 3713; clone 3713

What was measured:
[1] = biological target: T1, human complement protein C6 (human, UniProt P13671 22-934); experiment: BLI (Octet RED384), antibody on Protein G biosensors, C6 0.27-5 nM, 1:1 fit, experiment 2
T1 construct: also called human C6; C6 antigen
T1 sequence (P13671 22-934 limits assumed): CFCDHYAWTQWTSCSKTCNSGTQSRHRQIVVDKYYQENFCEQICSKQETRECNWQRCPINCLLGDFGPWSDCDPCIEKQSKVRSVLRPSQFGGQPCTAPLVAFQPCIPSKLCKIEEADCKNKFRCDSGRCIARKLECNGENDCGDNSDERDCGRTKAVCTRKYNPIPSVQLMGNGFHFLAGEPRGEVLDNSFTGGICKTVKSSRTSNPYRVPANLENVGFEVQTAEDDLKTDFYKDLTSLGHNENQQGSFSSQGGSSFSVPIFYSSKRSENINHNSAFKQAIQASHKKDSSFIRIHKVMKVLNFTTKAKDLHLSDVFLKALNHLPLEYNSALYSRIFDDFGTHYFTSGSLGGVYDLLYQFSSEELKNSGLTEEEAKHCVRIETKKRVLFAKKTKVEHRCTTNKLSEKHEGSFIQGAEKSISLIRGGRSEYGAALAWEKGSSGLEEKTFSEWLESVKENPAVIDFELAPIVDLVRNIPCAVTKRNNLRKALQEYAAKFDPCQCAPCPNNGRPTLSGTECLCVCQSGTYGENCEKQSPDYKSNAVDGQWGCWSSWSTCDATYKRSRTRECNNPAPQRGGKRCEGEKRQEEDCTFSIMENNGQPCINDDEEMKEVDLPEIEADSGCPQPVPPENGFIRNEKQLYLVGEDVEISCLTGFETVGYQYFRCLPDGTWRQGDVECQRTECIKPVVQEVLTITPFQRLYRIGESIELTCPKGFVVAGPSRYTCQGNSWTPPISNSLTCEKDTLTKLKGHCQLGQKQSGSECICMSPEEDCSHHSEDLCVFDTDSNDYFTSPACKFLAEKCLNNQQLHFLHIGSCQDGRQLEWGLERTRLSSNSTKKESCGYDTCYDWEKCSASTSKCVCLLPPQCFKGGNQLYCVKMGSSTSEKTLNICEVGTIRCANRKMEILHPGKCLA
Experimental: (§1) The binding of the purified chimeric molecules, MoC601 HuG4K and MoC601 HuG1KFab, was also confirmed by ELISA, where the anti-human IgG (Fab-specific) secondary reagent was used. The control mouse antibody bound as previously (EC₅₀ 0.11 nM). The EC₅₀ for purified MoC601 HuG4K (0.27 nM) was similar to that obtained for the MoC601 HuG4K supernatant sample above. […] The EC₅₀ value for the Fab molecule (0.48 nM) was higher than for the antibody, which would be expected since the Fab is unable to bind bivalently to the antigen on the well. A C6-binding assay was also set up on the Octet RED384 instrument. […] However, MoC601 MoG1K could be stably loaded onto anti-mouse Fc (AMC) biosensors. Concentrations of the mouse and chimeric antibodies were adjusted to give similar levels of loading on to the AMC and
Protein G biosensors respectively in subsequent experiments. There was no non-specific binding of C6 protein to unloaded sensors or sensors loaded with an isotype control antibody. […] The mouse and chimeric datasets were processed by subtracting the no antigen controls and the data were fitted to a 1:1 binding model. Binding curves giving Req/Rₘₐₓ ratios>90% or showing poor fitting were excluded from analysis. A second full kinetic experiment was performed with an adjusted concentration range (six points, 0.27-5 nM) and an extended dissociation step of 20 minutes.

[2] = biological target: T1, human complement protein C6; experiment: ELISA, purified protein, anti-human IgG (Fab-specific) detection
Experimental: as §1, with “AMC and […]” for “AMC and”

[3] = biological target: T1, human complement protein C6; experiment: C6-binding ELISA, A650 nm; sample 'PBS, non-incubated' (kept at 4 C)
Experimental: (§2) For the serum stability assessment, samples of the purified candidate antibodies are normally incubated in mouse, human and cynomolgus serum at 37 C for 28 days and then tested in an antigen-binding ELISA. Since the anti-C6 antibodies are expected to bind to both human and cynomolgus C6 but not mouse C6, we anticipated that incubating in human or cynomolgus sera would reduce ELISA binding due to occupation of the antibody binding sites by C6 protein from the sera. Therefore, the chimeric and humanized antibodies were tested with human and mouse sera and with human sera from which the C6 protein has been depleted. The C6-binding ELISA was then used to compare the binding abilities of the C601 antibodies that had been incubated in the 3 different sera to antibody samples that were incubated in PBS at 37 C or kept at 4 C (non-incubated).
(§3) The Uncle instrument (Unchained Labs) was used to monitor unfolding via intrinsic fluorescence and aggregation by static light scattering across a temperature gradient to obtain melting temperatures (Tₘ). […] Isoelectric points were determined by capillary isoelectric focusing using a PA800+ (Beckman Coulter). […]

[4] = biological target: T1, human complement protein C6; experiment: BLI (Octet), antibody on Protein G biosensors, 1:1 fit, experiment 1
[5] = biological target: human complement protein C5 (human, UniProt P01031 19-673; P01031 678-1676); experiment: ELISA, C5-coated wells
Sequence of human complement protein C5 (P01031 19-673 limits assumed, chain 1 of 2): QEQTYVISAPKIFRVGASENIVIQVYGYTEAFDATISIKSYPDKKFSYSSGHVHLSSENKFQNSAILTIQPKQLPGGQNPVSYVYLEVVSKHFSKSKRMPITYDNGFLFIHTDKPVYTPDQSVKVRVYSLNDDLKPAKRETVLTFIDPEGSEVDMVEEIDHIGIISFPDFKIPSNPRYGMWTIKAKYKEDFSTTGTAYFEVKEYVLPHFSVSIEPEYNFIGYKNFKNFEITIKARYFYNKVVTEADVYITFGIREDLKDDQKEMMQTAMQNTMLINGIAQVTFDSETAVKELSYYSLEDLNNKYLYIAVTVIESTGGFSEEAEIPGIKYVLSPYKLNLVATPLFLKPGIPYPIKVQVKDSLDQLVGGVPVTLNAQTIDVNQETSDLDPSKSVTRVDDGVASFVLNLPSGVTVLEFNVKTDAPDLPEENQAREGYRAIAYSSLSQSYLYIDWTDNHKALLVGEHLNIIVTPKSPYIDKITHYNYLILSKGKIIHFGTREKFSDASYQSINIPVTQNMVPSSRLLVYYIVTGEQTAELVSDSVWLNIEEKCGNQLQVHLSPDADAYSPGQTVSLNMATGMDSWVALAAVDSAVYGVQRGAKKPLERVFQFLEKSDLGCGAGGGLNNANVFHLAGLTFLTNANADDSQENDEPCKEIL
Sequence of human complement protein C5 (P01031 678-1676 limits assumed, chain 2 of 2): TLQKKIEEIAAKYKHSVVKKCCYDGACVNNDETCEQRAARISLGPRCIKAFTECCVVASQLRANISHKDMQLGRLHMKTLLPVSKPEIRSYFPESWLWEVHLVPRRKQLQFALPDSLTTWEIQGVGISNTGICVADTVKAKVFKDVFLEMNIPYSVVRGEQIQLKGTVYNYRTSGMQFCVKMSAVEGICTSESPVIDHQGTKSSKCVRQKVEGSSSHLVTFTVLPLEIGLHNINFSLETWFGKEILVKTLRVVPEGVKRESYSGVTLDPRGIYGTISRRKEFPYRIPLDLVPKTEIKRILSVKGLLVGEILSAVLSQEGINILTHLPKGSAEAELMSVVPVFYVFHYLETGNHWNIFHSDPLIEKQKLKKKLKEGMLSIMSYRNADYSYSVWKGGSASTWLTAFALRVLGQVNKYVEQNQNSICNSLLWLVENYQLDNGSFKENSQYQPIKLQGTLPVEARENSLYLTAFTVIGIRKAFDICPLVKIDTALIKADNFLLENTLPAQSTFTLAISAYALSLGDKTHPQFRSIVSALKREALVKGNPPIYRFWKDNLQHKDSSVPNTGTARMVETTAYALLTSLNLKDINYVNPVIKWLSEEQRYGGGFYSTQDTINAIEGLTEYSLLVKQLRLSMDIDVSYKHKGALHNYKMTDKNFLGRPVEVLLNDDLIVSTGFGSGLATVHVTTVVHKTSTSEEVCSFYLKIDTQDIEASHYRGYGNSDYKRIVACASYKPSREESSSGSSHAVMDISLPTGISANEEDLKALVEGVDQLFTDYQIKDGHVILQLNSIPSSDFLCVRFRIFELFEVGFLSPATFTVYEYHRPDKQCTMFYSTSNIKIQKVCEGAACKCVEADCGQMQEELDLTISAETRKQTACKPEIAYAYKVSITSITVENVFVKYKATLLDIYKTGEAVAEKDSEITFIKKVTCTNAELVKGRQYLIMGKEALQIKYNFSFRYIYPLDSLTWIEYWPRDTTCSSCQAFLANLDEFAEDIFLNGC

[6] = biological target: T1, human complement protein C6; experiment: C6-binding ELISA, A650 nm; sample 'PBS' (28 days at 37 C)
Experimental: as §2, §3

[7] = biological target: T1, human complement protein C6; experiment: BLI (Octet), full kinetics, C6 0.16-10 nM, 1:1 fit
Experimental: For two of the best performing antibodies, C601HFKC4 HuG4K (aka 3713) and C601HFKI HuG4K, a full kinetic experiment was run using seven concentrations of C6 (0.16-10 nM) and association and dissociation steps of 20 min. The datasets were processed by subtracting the no antigen controls and the data were fitted to a 1:1 binding model. Binding curves giving Req/Rₘₐₓ ratios>90% or showing poor fitting were excluded from analysis.

[8] = biological target: T1, human complement protein C6; experiment: ELISA, C6-coated wells, large-scale purified antibody
[9] = biological target: T1, human complement protein C6; experiment: C6-binding ELISA, A650 nm; sample 'C6-depleted human serum' (28 days at 37 C)
Experimental: as §2, §3

Binder	Kd [1] [nM]	kon [1] [M⁻¹ s⁻¹]	EC50 [2] [nM]	EC50 [3] [nM]	Kd [4] [nM]	koff [4] [s⁻¹]	kon [4] [M⁻¹ s⁻¹]	binding result [5]	EC50 [6] [nM]	Kd [7] [nM]	koff [7] [s⁻¹]	kon [7] [M⁻¹ s⁻¹]	EC50 [8] [nM]	EC50 [9] [nM]
B1	0.35	690000	0.27	0.18	0.36	0.00025	690000	no binding	0.19					
B2										0.11	0.00013	1.19e+06	0.19	0.17
